For 1 substance, HK-2 cell proliferation (cell count), 150 ng/ml total rice medium protein (5 ng H-EGF) results are on record in patent US20160017353A1.

This test concerns the target EGF receptor (EGFR) (human) (UniProt P00533). Put plainly: cell-based or functional assay.

On to “recombinant HSA-EGF fusion protein (human serum albumin fused to the N-terminal end of human EGF), secreted from transgenic rice cell line H-EGF 43 (from UniProt P02768 25-609) (ligand)”, for which the HK-2 cell proliferation (cell count), 150 ng/ml total rice medium protein (5 ng H-EGF) came to 2.9 fold.
